Results on 14 molecules are retold here after US20230287120A1 (ALLOGENE THERAPEUTICS, published 2023).

The labels stand for the following.
T1: Flag tagged recombinant DLL3 (Adipogen) (Homo sapiens (Human), UniProt Q9NYJ7 27-492)
T1 construct: Bought reagent; also called Flag-DLL3
T1 sequence: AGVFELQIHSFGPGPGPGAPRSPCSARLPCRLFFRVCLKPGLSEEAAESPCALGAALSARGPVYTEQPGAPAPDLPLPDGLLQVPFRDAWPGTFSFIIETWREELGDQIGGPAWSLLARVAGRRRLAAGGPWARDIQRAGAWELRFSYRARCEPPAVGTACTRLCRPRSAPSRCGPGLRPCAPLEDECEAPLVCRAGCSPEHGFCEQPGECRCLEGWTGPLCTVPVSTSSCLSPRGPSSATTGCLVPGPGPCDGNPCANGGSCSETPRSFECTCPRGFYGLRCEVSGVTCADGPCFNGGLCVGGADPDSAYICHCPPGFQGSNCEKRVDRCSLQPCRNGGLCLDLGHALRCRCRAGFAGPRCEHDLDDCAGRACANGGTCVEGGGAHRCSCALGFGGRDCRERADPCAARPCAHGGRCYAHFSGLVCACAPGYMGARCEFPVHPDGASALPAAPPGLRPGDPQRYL

T2: human DLL3 extracellular domain (ECD) with C-terminal 8xHis tag and Avi tag (human, UniProt Q9NYJ7 27-492)
T2 construct: extracellular domain; Expressed in Expi293, purified by IMAC and SEC; also called huDLL3; not shown: Avi tag
T2 sequence: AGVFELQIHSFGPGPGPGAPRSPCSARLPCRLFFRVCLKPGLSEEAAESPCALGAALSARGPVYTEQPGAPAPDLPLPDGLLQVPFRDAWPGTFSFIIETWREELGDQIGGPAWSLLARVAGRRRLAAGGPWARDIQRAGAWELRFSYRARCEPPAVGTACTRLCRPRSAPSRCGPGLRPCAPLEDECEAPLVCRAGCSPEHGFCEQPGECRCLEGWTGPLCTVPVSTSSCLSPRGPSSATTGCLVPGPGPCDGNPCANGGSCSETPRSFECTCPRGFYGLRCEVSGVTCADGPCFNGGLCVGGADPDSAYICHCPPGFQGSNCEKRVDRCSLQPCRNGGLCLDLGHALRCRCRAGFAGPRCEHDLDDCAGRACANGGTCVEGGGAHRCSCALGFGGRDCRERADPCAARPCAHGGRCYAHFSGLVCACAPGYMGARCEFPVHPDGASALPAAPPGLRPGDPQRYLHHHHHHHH

B1: 11A3 (other)
CAR: QVQLQESGPGLVKPSETLSLTCTVSSDSISNYYWSWIRQPPGKGLEWISYIYYSGITNYNPSLKSRVTISVDTSKNQFSLKLSSVTAADTAVYYCARITVTGFYFDYWGQGTLVTVSSGGGGSGGGGSGGGGSGGGGSEIVLTQSPGTLSLSPGERATLSCRASQSISRSYLAWYQQKPGQAPRHLIYGASSRATGIPDRFSGSGSGTDFILTISRLEPEDFAVYYCQQYDTSPLTFGGGTKVEIKTTTPAPRPPTPAPTIASQPLSLRPEACRPAAGGAVHTRGLDFACDIYIWAPLAGTCGVLLLSLVITKRGRKKLLYIFKQPFMRPVQTTQEEDGCSCRFPEEEEGGCELRVKFSRSADAPAYQQGQNQLYNELNLGRREEYDVLDKRRGRDPEMGGKPRRKNPQEGLYNELQKDKMAEAYSEIGMKGERRRGKGHDGLYQGLSTATKDTYDALHMQALPPR
notes: also called anti-DLL3 CAR with 11A3 scFv, on primary T cells
B2: 7F9 scFv-Fc fusion (Fc fusion, not shown: a dimerising Fc or GST)
scFv: EVQLVESGGGLVQPGGSLRLSCAASGFTFSSHDMHWVRQATGKGLEWVSAIGIAGDTYYSGSVKGRFTISRENAKNSLYLQMNSLRAGDTAVYYCARANWGEGAFDIWGQGTMVTVSSGGGGSGGGGSGGGGSGGGGSDIQMTQSPSSLSASVGDRVTITCRASQGISDYLAWYQQKPGKIPKLLIYAASTLQSGVPSRFSGSGSGTDFTLTISSLQPEDVATYYCQKYNSVPLTFGGGTKVEIK
notes: scFv-Fc expressed in Expi293
B3: 9H12-K scFv-Fc fusion (Fc fusion, not shown: a dimerising Fc or GST)
scFv: QVQLVQSGAEVKKPGASVKVSCKASGYTFTGYSIHWVRQAPGQGLEWMGWINPNSGGTFYAQKFQGRVTMTRDTSISTVYMELSRLRSDDTAVYYCARDGWGDYYYYGLDVWGQGTTVTVSLGGGGSGGGGSGGGGSGGGGSDIQMTQSPSSVSASVGDRVTITCRASQDISSWLAWYQQKPGKAPKLLIYTASSLQGGVPSRFSGSGSGTDFTLTISSLQPEDLATYSCQQANVFPYTFGQGTKLEIK
notes: scFv-Fc expressed in Expi293
B4: anti-DLL3 antibody 6F8 (IgG) (antibody, V domains shown)
VH: QVQLVQSGAEVKKPGSSVKVSCKASGGTFTNYCISWVRQAPGQGLEWMGGIIPIFGTTNYAQTFQGRVTITADKSTSTAYMELSSLRSEDTAVYYCARDNGDRYYYDMDVWGQGTTVTVSS
VL: QSVLTQPPSVSAAPGQKVTISCSGSSSNIGNNYVSWYQQLPGTAPKLLIYDNNKRPSGIPDRFSGSKSGTSATLGITGLQTGDEADYYCGTWDSSLSAVVFGGGTKLTVL
B5: anti-DLL3 antibody 2D3 (IgG) (antibody, V domains shown)
VH: QVQLQESGPGLVKPSETLSLTCTVSDNSISNYYWSWIRQPPGKGLEWIAYIYYSGTTNYNPSLKSRVTISLDTSKNQFSLKLSSVTAADTAVYYCARLFNWGFAFDIWGQGTMVTVSS
VL: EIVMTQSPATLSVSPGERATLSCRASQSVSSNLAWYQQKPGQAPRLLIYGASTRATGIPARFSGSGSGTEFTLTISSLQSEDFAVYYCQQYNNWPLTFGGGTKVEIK
notes: Full-length monoclonal antibody (IgG)
B6: anti-DLL3 antibody 8E11 (IgG) (antibody, V domains shown)
VH: QVQLQESGPGLVKPSETLSLTCTVSGDSISNYYWTWIRQPPGKGLEWIGYIYYSGTTNSNPSLKSRVTVSLDTSKSQFSLNLSSVTAADTAVYYCARVFNRGFAFDIWGQGTMVTVSS
VL: EIVLTQSPGTLSLSPGERATLSCRASQRISNTYLAWYQQKPGQAPRLLIYGASSRATGIPDRFSGSGSGTDFTLTISRLEPEDFAAYYCQQYDTSPLTFGGGTKVEIK
notes: as for B5
B7: anti-DLL3 antibody 9D3 (IgG) (antibody, V domains shown)
VH: QVQLQESGPGLVKPSETLSLTCTVSDDSISNYYWSWIRQPPGKGLEWIGYIFYSGTTNHNPSLKSRLTISLDKAKNQFSLRLSSVTAADTAVYYCARVFNWGFAFDIWGQGTMVTVSS
VL: EIVLTQSPGTLSLSPGERATLSCRASQRISRTYLAWYQQKPGQAPRLLIYGASSRATGIPDRFTGSGSGTDFTLTISRLEPEDFAVYYCQQYGTSPLTFGGGTKVEIN
notes: as for B5
B8: anti-DLL3 antibody 2A6.C5 (IgG) (antibody, V domains shown)
VH: QVQLQESGPGLVKPSETLSLTCTVSNVSISSYYWSWIRQPPGKGLEWIGYIYYSGTTNYNPSLKSRVTMSVDTSKNQFSLKLSSVTAADTAVYFCARLSNWGFAFDIWGQGTMVTFSS
VL: EIVLTQSPGTLSLSPGERATLSCRASQTISSSYLAWYQQKPGQAPRLLIYGASSRATGIPDRFSGSGSGTEFTLTISRLEPEDFAVYYCQQYGWSPITFGQGTRLEIK
notes: as for B5
B9: anti-DLL3 antibody 17A2 (IgG) (antibody, V domains shown)
VH: QVQLQESGPGLVKPSGTLSLTCVVFGDSISSSNWWSWVRQPPGKGLEWIGEVFHSGSTNYNPSLKSRVTISVDKSKNQFSLKLSSVTAADTAVYYCARAAVAGALDYWGQGTLVTVSS
VL: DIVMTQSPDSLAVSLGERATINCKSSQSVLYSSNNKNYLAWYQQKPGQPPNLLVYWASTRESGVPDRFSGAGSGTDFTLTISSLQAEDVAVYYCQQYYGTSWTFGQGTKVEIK
notes: as for B5
B10: anti-DLL3 antibody 2G1 (IgG) (antibody, V domains shown)
VH: QLQLQESGPGLVKPSETLSLTCTVSGGSISSSSYYWGWIRQPPGKGLEWIGSIYYSGNIYHNPSLKSRVSISVDTSKNQFSLRLSSVTAADTAVYYCAREIIVGATHFDYWGQGTLVTVSS
VL: AIQMTQSPSSLSASVGDRVTITCRASQGIRNDLGWYQQKPGKAPELLIYAASSLQSGVPSRFSGSGSGTDFTLTISSLQPEDFATYYCLQDYNYPLTFGPGTKVDIK
notes: as for B5
B11: anti-DLL3 antibody 4H8 (IgG) (antibody, V domains shown)
VH: QVQLQQSGPGLVKPSQTLSLTCAISGDSVSSNSATWNWIRQSPSRGLEWLGRTYYRSKWYDDYAVSVKSRITINPDTSKNHLSLHLNSVTPEDTAVYYCAGGGLVGAPDGFDVWGQGTMVTVSS
VL: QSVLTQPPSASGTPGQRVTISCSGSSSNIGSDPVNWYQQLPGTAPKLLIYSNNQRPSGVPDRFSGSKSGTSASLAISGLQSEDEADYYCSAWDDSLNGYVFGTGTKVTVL
notes: as for B5
B12: anti-DLL3 antibody 11A3 (IgG) (antibody, V domains shown)
VH: QVQLQESGPGLVKPSETLSLTCTVSSDSISNYYWSWIRQPPGKGLEWISYIYYSGITNYNPSLKSRVTISVDTSKNQFSLKLSSVTAADTAVYYCARITVTGFYFDYWGQGTLVTVSS
VL: EIVLTQSPGTLSLSPGERATLSCRASQSISRSYLAWYQQKPGQAPRHLIYGASSRATGIPDRFSGSGSGTDFILTISRLEPEDFAVYYCQQYDTSPLTFGGGTKVEIK
notes: as for B5
B13: anti-DLL3 antibody 3F2 (IgG) (antibody, V domains shown)
VH: QVQLQESGPGLVKPSGTLSLTCAVSGGSISSNNWWSWVRQPPGKGLEWIGDIHHSGSTNYKPSLKSRVTISVDKSKNQFSLNLISVTAADTAVYYCAREAGGYFDYWGQGILVTVSS
VL: DIQMTQSPSTLSASVGDRVTITCRASQSISSWLAWYQQKPGKAPKLLISKASSLESGVPSRFSGSGSGPEFTLTISSLQPADFATYYCQQYNSYSTFGQGTKLEIK
notes: as for B5
B14: anti-DLL3 antibody 7F9 (IgG) (antibody, V domains shown)
VH: EVQLVESGGGLVQPGGSLRLSCAASGFTFSSHDMHWVRQATGKGLEWVSAIGIAGDTYYSGSVKGRFTISRENAKNSLYLQMNSLRAGDTAVYYCARANWGEGAFDIWGQGTMVTVSS
VL: DIQMTQSPSSLSASVGDRVTITCRASQGISDYLAWYQQKPGKIPKLLIYAASTLQSGVPSRFSGSGSGTDFTLTISSLQPEDVATYYCQKYNSVPLTFGGGTKVEIK
notes: as for B5

The first test deals with T1, Flag tagged recombinant DLL3 (Adipogen). As to the kind of experiment: flow cytometry, primary T cells with the CAR, 1 ug/ml Flag tagged recombinant DLL3, PE anti-Flag. (A flow cytometer gives signals particle by particle.)
Protocol: (§1) To determine the percentage of T cells that were successfully transduced with DLL3 CAR, T cells were first incubated with 1 ug/ml Flag tagged recombinant DLL3 (Adipogen) in PBS+1% BSA for 20 minutes at 4 C.
Turning to B1, the “Rec-DLL3 gate, percent of live CD3+ cells” value came to 57.3%.

In the next test the target is T2, human DLL3 extracellular domain (ECD) …. As to the kind of experiment: SPR (Biacore), 37 C; scFv-Fc captured on chip, human DLL3 ECD in solution; 1:1 Langmuir fit. (Surface plasmon resonance follows binding to a sensor surface in real time, without labels.)
Protocol: (§2) The antibody binding kinetics were determined by surface plasmon resonance (Biacore™ surface plasmon resonance (SPR) system, GE Healthcare Bio-Sciences, Pittsburgh Pa.). The antibodies diluted in HBS-T+ running buffer (0.01 M HEPES pH 7.4, 0.15 M NaCl, 0.05% v/v Tween20, 1 mg/mL BSA) were captured on a CM4 chip immobilized with an antibody specific for the anti-DLL3 antibody constant domains. Purified DLL3 was serially diluted into HBS-T+, injected for 2 min at 30 uL/min and a dissociation time of 10 min then the surface regenerated with either 10 mM Glycine-HCl pH 1.7 or phosphoric acid between injections. […] Equilibrium dissociation constant (Kd) values are calculated as koff/kₒₙ.
One may read the Kd as the constant that tells how readily two partners part at equilibrium. Low values mean higher affinity, high ones lower affinity. For the molecule B2, the affinity, expressed as Kd, was 27.3 nM.
On the same count and under the same terms, for B3 the value was 186 nM.

In the next test the target is T1, Flag tagged recombinant DLL3 (Adipogen). Nature of the test: flow cytometry, percent of T cells that recognise recombinant DLL3, Donor 503.
Protocol: as §1
On to B1, for which the Transduction efficiency turned out to be 42.1%.

The target is the same in a further test. As to the kind of experiment: flow cytometry, percent of T cells that recognise recombinant DLL3, Donor 772.
Protocol: as §1
With B1, the Transduction efficiency worked out at 20%.

The target of the next test is T2, human DLL3 extracellular domain (ECD) …. As to the kind of experiment: SPR (Biacore), 37 C; IgG captured on chip, human DLL3 ECD in solution; 1:1 Langmuir fit.
Protocol: as §2
B4 returned a Kd of 26.5 nM.
On the same count and under the same terms, for B5 the value was 5.47 nM; for B6, 5.86 nM; for B7, 21.1 nM.
In turn, B8 returned a Kd of 23.4 nM. This Kd and that of the molecule before are within 1.5-fold of each other.
Same read-out and setting: for B9 the value was 5.49 nM.
The molecule B10 had a Kd of 38.1 nM.
The molecule B11 showed a Kd of 18.5 nM. This Kd lies about 2.1-fold lower than the previous one.
Still for that read-out and setting: for B12 the value was 4.8 nM.
B13 yielded a dissociation constant Kd of 14.8 nM.
The same measure, in the same setting: for B14 the value was 12.7 nM.
